The values below come from patent publication EP1146896B1.

Experiment [1] concerns the target B28-N^ε-myristoyl-Lys^B28Pro^B29 human insulin analog (human). As to the kind of experiment: static light scattering, self-association, pH 7.5.
Experiment [2] has the same target. In words: sedimentation velocity analysed with DCDT Plus, self-association, pH 8.0.
The target is the same in experiment [3]. As to the kind of experiment: sedimentation velocity, self-association, 7 mM phosphate pH 7.95 (monomer 6,018 g/mole, theoretical hexamer 36,108 g/mole).
For experiment [4] the target is unchanged. As to the kind of experiment: sedimentation velocity, self-association, 10 mM Tris pH 7.96 (monomer 6,018 g/mole, theoretical hexamer 36,108 g/mole).
Experiment [5] has the same target. As to the kind of experiment: static light scattering, self-association, pH 7.8.
Experiment [6] has the same target. As to the kind of experiment: static light scattering, self-association, pH 8.3.
For experiment [7] the target is unchanged. In words: static light scattering, self-association, pH 8.0.
The target is the same in experiment [8]. In words: static light scattering, self-association, pH 8.5.
Experiment [9] concerns the target B28-N^ε-octanoyl-Lys^B28Pro^B29 human insulin analog (human). As to the kind of experiment: sedimentation velocity (DCDT Plus), self-association, pH 8.0, first fit.
For experiment [10] the target is unchanged. As to the kind of experiment: sedimentation velocity (DCDT Plus), self-association, pH 8.0, refined fit.
Experiment [11] addresses B29-N^ε-myristoyl-des(B30) human insulin (human) (UniProt P01308). As to the kind of experiment: sedimentation velocity, area of the profile compared with an ideal hypothetical hexamer curve, self-association, pH 8.0 (7.97).
Experiment [12] has the same target. As to the kind of experiment: sedimentation velocity (DCDT Plus, single Gaussian fit), self-association, pH 7.97.
The target is the same in experiment [13]. As to the kind of experiment: sedimentation velocity (DCDT Plus, single Gaussian fit), self-association, pH 8.4.
For experiment [14] the target is unchanged. In words: sedimentation velocity (DCDT Plus, single Gaussian fit), self-association, pH 7.5; heterogeneous.
For experiment [15], the target named is B29-N^ε-octanoyl-Asp^B28 human insulin analog (human). In words: sedimentation velocity (DCDT Plus, two Gaussian fit), self-association, pH 8.0.
For experiment [16] the target is unchanged. In words: sedimentation velocity (DCDT Plus, two Gaussian fit), self-association, pH 7.5; hexamer said not to be dominant.
Experiment [17] shares this target. As to the kind of experiment: sedimentation velocity (DCDT Plus, two Gaussian fit), self-association, pH 7.5; the model is the 27,700 g/mole species, not hexamer.

As to “B28-N^ε-myristoyl-Lys^B28Pro^B29 human insulin analog (ligand)”, the Mw (weight-average molecular weight of association) was determined as 127000 g/mol in experiment [1]; 60700 g/mol in [5]; 40400 g/mol in experiment [6]; 40400 g/mol in experiment [7]; 49100 g/mol in [8]. For the same substance, the molecular weight of association in experiment [2] was determined as 34400 grams/mole. In addition, the percent of data described by the hexamer model in experiment [2] is over 96%. For the same substance, the values for the Calculated MW of association in experiment [3] and in experiment [4] were 34300 g/mol and 35000 g/mol, respectively.
In the case of “B28-N^ε-octanoyl-Lys^B28Pro^B29 human insulin analog (ligand)”, the molecular weight of association in [9] stood at 35300 g/mol; in experiment [10], 40800 g/mol. Also, in experiment [10], the percent of data described by the hexamer model was over 94%.
Substance “B29-N^ε-myristoyl-des(B30) human insulin (from UniProt P01308 25-110; P01308 25-110) (ligand)” showed a percent in the hexamer association state in experiment [11] of over 92 percent. Also, the MW (g/mole) of association in experiment [12] was found to be 30700 g/mol; in experiment [13], 39000 g/mol; in experiment [14] it was 23000 g/mol.
Regarding “B29-N^ε-octanoyl-Asp^B28 human insulin analog (ligand)”, the molecular weight of association is 33200 g/mol in experiment [15] and 27700 g/mol in [16]. Also, the percent of data described by the hexamer model in experiment [15] was determined as 85%. Besides, in experiment [17], the percent of data described by the model was over 92%.
